Measured values: the supplement of paper PMC11316812
± gives the standard deviation of the averaged measurements.

Key:
MCF7 = assay: percentage of EdU-negative (G0-arrested) nuclei per well, 72 h; higher = more G0 arrest; settings: reference: sequence is the full UniProt precursor, the tested protein was the secreted form or ectodomain
hTERT-HMEC = assay: as above; settings: reference: sequence is the full UniProt precursor, the tested protein was the secreted form or ectodomain
[1] = protein concentration 0.0282857 µM
[2] = protein concentration 0.282857 µM
[3] = protein concentration 0.0225 µM
[4] = protein concentration 0.00857143 µM
[5] = protein concentration 0.0857143 µM
[6] = protein concentration 0.01547 µM
[7] = protein concentration 0.1547 µM
[8] = protein concentration 0.021325 µM
[9] = protein concentration 0.03125 µM
[10] = protein concentration 0.21325 µM
[11] = protein concentration 0.3125 µM
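Note: secreted proteins added to cultured cells, EdU pulse at the end, nuclei found by Hoechst imaging, EdU status from nuclear versus surrounding ring intensity ratio, PBS as neutral control.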

In the case of “MSSWSRQRPKSPGGIQPHVSRTLFLLLLLAASAWGVTLSPKDCQVFRSDHGSSISCQPPAEIPGYLPADTVHLAVEFFNLTHLPANLLQGASKLQELHLSSNGLESLSPEFLRPVPQLRVLDLTRNALTGLPPGLFQASATLDTLVLKENQLEVLEVSWLHGLKALGHLDLSGNRLRKLPPGLLANFTLLRTLDLGENQLETLPPDLLRGPLQLERLHLEGNKLQVLGKDLLLPQPDLRYLFLNGNKLARVAAGAFQGLRQLDMLDLSNNSLASVPEGLWASLGQPNWDMRDGFDISGNPWICDQNLSDLYRWLQAQKDKMFSQNDTRCAGPEAVKGQTLLAVAKSQ”, the “percentage of EdU-negative” value (MCF7; [1]) is reported as 22.3 ± 2.4%, the “percentage of EdU-negative” value (MCF7; [2]) is reported as 25.7 ± 1.4% and the “percentage of EdU-negative” value (hTERT-HMEC; [1]) is reported as 4.97 ± 0.88%. For the same sequence, the “percentage of EdU-negative” value (hTERT-HMEC; [2]) was 6.814 ± 0.037%.

In the case of “MSVMKPCLMTIAILMILAQKTPGGLFRSHNGKSREPWNPCELYQGMCRNACREYEIQYLTCPNDQKCCLKLSVKITSSKNVKEDYDSNSNLSVTNSSSYSHI [Q30KQ4]”, the “percentage of EdU-negative” value (MCF7; [3]) is reported as 25.4 ± 1.7%, the “percentage of EdU-negative” value (MCF7; protein concentration 0.225 µM) is reported as 23.5 ± 1.3% and the “percentage of EdU-negative” value (hTERT-HMEC; [3]) is reported as 5.55 ± 0.29%. The “percentage of EdU-negative” value (hTERT-HMEC; protein concentration 0.225 µM) was 5.56 ± 0.81%.

With “MSVPLLKIGVVLSTMAMITNWMSQTLPSLVGLNTTKLSAAGGGTLDRSTGVLPTNPEESWQVYSSAQDSEGRCICTVVAPQQTMCSRDARTKQLRQLLEKVQNMSQSIEVLDRRTQRDLQYVEKMENQMKGLESKFKQVEESHKQHLARQFKAIKAKMDELRPLIPVLEEYKADAKLVLQFKEEVQNLTSVLNELQEEIGAYDYDELQSRVSNLEERLRACMQKLACGKLTGISDPVTVKTSGSRFGSWMTDPLAPEGDNRVWYMDGYHNNRFVREYKSMVDFMNTDNFTSHRLPHPWSGTGQVVYNGSIYFNKFQSHIIIRFDLKTETILKTRSLDYAGYNNMYHYAWGGHSDIDLMVDESGLWAVYATNQNAGNIVVSRLDPVSLQTLQTWNTSYPKRSAGEAFIICGTLYVTNGYSGGTKVHYAYQTNASTYEYIDIPFQNKYSHISMLDYNPKDRALYAWNNGHQILYNVTLFHVIRSDEL” the “percentage of EdU-negative” value (MCF7; [4]) was 25.5 ± 3.5%, the “percentage of EdU-negative” value (MCF7; [5]) was 29.3 ± 2.1% and the “percentage of EdU-negative” value (hTERT-HMEC; [4]) was 4.93 ± 0.14%. The “percentage of EdU-negative” value (hTERT-HMEC; [5]) was 9.49 ± 1.4%.

With “MSWSLHPRNLILYFYALLFLSSTCVAYVATRDNCCILDERFGSYCPTTCGIADFLSTYQTKVDKDLQSLEDILHQVENKTSEVKQLIKAIQLTYNPDESSKPNMIDAATLKSRKMLEEIMKYEASILTHDSSIRYLQEIYNSNNQKIVNLKEKVAQLEAQCQEPCKDTVQIHDITGKDCQDIANKGAKQSGLYFIKPLKANQQFLVYCEIDGSGNGWTVFQKRLDGSVDFKKNWIQYKEGFGHLSPTGTTEFWLGNEKIHLISTQSAIPYALRVELEDWNGRTSTADYAMFKVGPEADKYRLTYAYFAGGDAGDAFDGFDFGDDPSDKFFTSHNGMQFSTWDNDNDKFEGNCAEQDGSGWWMNKCHAGHLNGVYYQGGTYSKASTPNGYDNGIIWATWKTRWYSMKKTTMKIIPFNRLTIGEGQQHHLGGAKQVRPEHPAETEYDSLYPEDDL” the “percentage of EdU-negative” value (MCF7; [6]) was 24 ± 1.3%, the “percentage of EdU-negative” value (MCF7; [7]) was 25 ± 2% and the “percentage of EdU-negative” value (hTERT-HMEC; [6]) was 5.07 ± 0.17%. For the same sequence, the “percentage of EdU-negative” value (hTERT-HMEC; [7]) was 5.92 ± 0.15%.

“MTALFLMSMLFGLTCGQAMSFCIPTEYTMHIERRECAYCLTINTTICAGYCMTRDINGKLFLPKYALSQDVCTYRDFIYRTVEIPGCPLHVAPYFSYPVALSCKCGKCNTDYSDCIHEAIKTNYCTKPQKSYLVGFSV” was tested, and the “percentage of EdU-negative” value (MCF7; protein concentration 0.017 µM) was 27.8 ± 3.8%, the “percentage of EdU-negative” value (MCF7; protein concentration 0.17 µM) was 27.2 ± 1.9% and the “percentage of EdU-negative” value (hTERT-HMEC; protein concentration 0.017 µM) was 5.28 ± 0.69%. The “percentage of EdU-negative” value (hTERT-HMEC; protein concentration 0.17 µM) was 9.97 ± 1.1%.

“MTAPGAAGRCPPTTWLGSLLLLVCLLASRSITEEVSEYCSHMIGSGHLQSLQRLIDSQMETSCQITFEFVDQEQLKDPVCYLKKAFLLVQDIMEDTMRFRDNTPNAIAIVQLQELSLRLKSCFTKDYEEHDKACVRTFYETPLQLLEKVKNVFNETKNLLDKDWNIFSKNCNNSFAECSSQDVVTKPDCNCLYPKAIPSSDPASVSPHQPLAPSMAPVAGLTWEDSEGTEGSSLLPGEQPLHTVDPGSAKQRPPRSTCQSFEPPETPVVKDSTIGGSPQPRPSVGAFNPGMEDILDSAMGTNWVPEEASGEASEIPVPQGTELSPSRPGGGSMQTEPARPSNFLSASSPLPASAKGQQPADVTGTALPRVGPVRPTGQDWNHTPQKTDHPSALLRDPPEPGSPRISSLRPQGLSNPSTLSAQPQLSRSHSSGSVLPLGELEGRRSTRDRRSPAEPEGGPASEGAARPLPRFNSVPLTDTGHERQSEGSFSPQLQESVFHLLVPSVILVLLAVGGLLFYRWRRRSHQEPQRADSPLEQPEGSPLTQDDRQVELPV” was tested, and the “percentage of EdU-negative” value (MCF7; [8]) was 21.9 ± 1.2%, the “percentage of EdU-negative” value (MCF7; [9]) was 26.7 ± 0.3% and the “percentage of EdU-negative” value (MCF7; [10]) was 27.6 ± 1.4%. The “percentage of EdU-negative” value (MCF7; [11]) was 26 ± 0.57%, the “percentage of EdU-negative” value (hTERT-HMEC; [8]) was 5.8 ± 0.14% and the “percentage of EdU-negative” value (hTERT-HMEC; [9]) was 4.68 ± 0.61%. The “percentage of EdU-negative” value (hTERT-HMEC; [10]) was 6.92 ± 1.3% and the “percentage of EdU-negative” value (hTERT-HMEC; [11]) was 6.12 ± 1.1%.

With “MTARAWASWRSSALLLLLVPGYFPLSHPMTVAGPVGGSLSVQCRYEKEHRTLNKFWCRPPQILRCDKIVETKGSAGKRNGRVSIRDSPANLSFTVTLENLTEEDAGTYWCGVDTPWLRDFHDPIVEVEVSVFPAGTTTASSPQSSMGTSGPPTKLPVHTWPSVTRKDSPEPSPHPGSLFSNVRFLLLVLLELPLLLSMLGAVLWVNRPQRSSRSRQNWPKGENQ” the “percentage of EdU-negative” value (MCF7; [3]) was 26.2 ± 3.7%, the “percentage of EdU-negative” value (MCF7; protein concentration 0.225 µM) was 23.5 ± 0.75% and the “percentage of EdU-negative” value (hTERT-HMEC; [3]) was 5.08 ± 0.64%. For the same sequence, the “percentage of EdU-negative” value (hTERT-HMEC; protein concentration 0.225 µM) was 12.4 ± 10%.
